We go through one molecule from patent publication US20070027089A1.

The target in this assay is amyloid precursor protein APP695 in HEK 293-APP cells (human), P05067. Description: cell-based or functional assay.

Where no end group is shown, it is not given here. [ ]: non-standard residue; d: D form. Ahx = NCCCCCC(=O)O

amyloid precursor protein APP695 in HEK 293-APP cells (human), P05067, sequence (P05067 18-770): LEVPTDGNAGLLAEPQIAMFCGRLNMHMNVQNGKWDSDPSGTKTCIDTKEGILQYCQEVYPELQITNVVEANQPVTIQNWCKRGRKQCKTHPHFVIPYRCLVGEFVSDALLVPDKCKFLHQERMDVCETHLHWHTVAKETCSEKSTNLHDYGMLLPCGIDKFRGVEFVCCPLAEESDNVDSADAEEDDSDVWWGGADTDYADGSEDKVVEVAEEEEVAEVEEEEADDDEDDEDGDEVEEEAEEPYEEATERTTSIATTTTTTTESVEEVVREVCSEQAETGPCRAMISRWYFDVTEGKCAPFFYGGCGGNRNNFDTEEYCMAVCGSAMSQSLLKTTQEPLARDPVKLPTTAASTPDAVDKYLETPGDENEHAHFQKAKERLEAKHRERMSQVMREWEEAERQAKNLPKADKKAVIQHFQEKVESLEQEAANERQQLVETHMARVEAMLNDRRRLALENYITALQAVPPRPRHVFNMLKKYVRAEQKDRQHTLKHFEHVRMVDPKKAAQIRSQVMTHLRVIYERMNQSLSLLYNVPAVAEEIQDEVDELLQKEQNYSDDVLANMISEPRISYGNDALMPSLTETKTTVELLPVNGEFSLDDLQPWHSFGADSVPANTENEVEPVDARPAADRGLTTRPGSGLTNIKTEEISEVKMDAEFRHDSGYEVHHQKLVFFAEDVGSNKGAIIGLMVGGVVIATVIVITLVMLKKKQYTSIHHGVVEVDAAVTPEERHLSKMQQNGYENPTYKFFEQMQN

B1: 6-aminohexanoic acid-c-Sub M ΔN3C1 (NH2-(CH2)5-CO-Cys-Ile-Gln-Ile-His-Phe-NH2) (peptide)
peptide: [Ahx]CIQIHF-NH2
modifications: N-terminus assumed
SMILES: CC[C@H](C)[C@H](NC(=O)[C@H](CCC(N)=O)NC(=O)[C@@H](NC(=O)[C@H](CS)NC(=O)CCCCCN)[C@@H](C)CC)C(=O)N[C@@H](Cc1c[nH]cn1)C(=O)N[C@@H](Cc1ccccc1)C(N)=O
For B1, the reduction of Aβ released from HEK293-APP cells (sandwich ELISA) at 6.25 µM peptide was determined as 70%.
